# Laboratory results from the supplement of paper PMC9170038.
# Test system: MS2 coat protein
# Assay: apparent KD of MS2 coat protein; higher = weaker reporter binding
# Conditions: Eterna round: R107; input ligand: arginine 13.2 mM
# Protocol: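 RNA-MaP round R107: designed RNA switches with theophylline, tryptophan, arginine or FMN aptamers are transcribed on-chip within common flanks. They are titrated with SNAP-549-labelled MS2 coat protein in RNA-MaP buffer (100 mM Tris pH 7.5, 80 mM KCl, 4 mM MgCl2), without ligand or with the indicated ligand. Median apparent KD per design.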
row,Sequence,apparent KD of MS2 coat protein [nM]
1,GGAACAUGAGGAUCACCCAUGUCGAGUGGUCGAGGACCGGUACGGCCGCCACUCGACAUUGCUCAUAGGUAUAGCGUGAGAACGC [Same State - Tryptophan 1],100
2,UUAAUCUAUAAUGAAAACAUUAUAGCAGAAGGAGCGUGAUAAAACACAGGUAGGUCGCUGAAGGGAACAUGAGGAUCACCCAUGU [AstrosSSArgA#12],24.3

# Same assay, conditions: Eterna round: R107; input ligand: none
row,Sequence,apparent KD of MS2 coat protein [nM]
1,CUCUGAGUGAUCGCUCACUCAGAGGCGGAUACCAGCGAGGUCCAUCGCCCUUGGCAGCCGAACAUGAGGAUCACCCAUGUCGGUA [#1 Same State - Theophylline A Attempt #20 (HarryS)],10.3
2,UUUUUUUUGGGAAGGAGCGGGAACAUGUGGAUCUCCCAUGUACAUGAGGAUCACCCAUGUACCCAGGUAGGUCGCUCAUUUUUUU [Exclusion - Arginine B],25.8
3,UGGCGAGAAGGAAGGAGCGUCAGCUGAGUCACAUGAGGAUCACCCAUGUCGCACAUAGUGUGACAGGUAGGUCGCCUUCUGCCCU [Beinmain],134
4,UCGUUUGAGGCGGCCGCCACUGGUCUCAUGGUCAACAUGAGGAUCACCCAUGUAUCUUUGCCAAGCAGGACCGGGCCUCGAGCGA [#20 Exclusion Tryptophan B],23.6
5,ACAGGAAACGGAAGGAGCGGAAUUGCAACAUGAGGAUCACCCAUGUUGAUCGUGAGUUGCUUCCAGGUAGGUCGCCGUUACCUAA [Erorve],33.6
6,ACAUGAGGAUCACCCAUGUACAUAAGGGAAGGAGCGCGGUGAAACGCAGGUAGGUCGCCCAUAAUAACAAUAAAUAAAUUCAUGU [LeftA1],13.5
7,UCGGGCAGAGCGGCCGCCACUGUUUGGCGUGCGGAUGAAGGAACAUGAGGAUCACCCAUGUAGAUUAGGACCGGGCUUGCGGAGA [ddrmullin],13.8
8,ACGUAAUGCAGAAGGAGCGUCUUUUUAAAACAUGAGGAUCACCCAUGUAAUAUUUAUGGGAGACAGGUAGGUCGCUGAAGUACGA [JR_SSArginiB_Sub006],23.5
9,UAAAUAAUCUGGGUGUAGGUAAUAACAGAUACCAGCCAGAUAACUGGCCCUUGGCAGCUGAAAACAUGAGGAUCACCCAUGUAAA [Mat - Same State Theophlline A - Mod of Eli - D19],80.6
10,UUCGUUUGCGGAAGGAGCGACGGACAUCGGUGAACGACGGACAUGAGGAUCACCCAUGUACGUCAGGUAGGUCGCCGCUAAGAGU [Enbiceri],13.2
11,ACACGGAAUGAUGGAUCACCUCGUGAAUCACGAGGACCGGUACGGCCGCCACUCGAAAACCGUGACCUGUACGAAAAGUGCAGGA,89.7
12,AAUAAACAUGAGGAUCACCCAUGUAGGGUGCGAGGACCGGUACGGCCGCCACUCGGGUGAAAACAUGAAAAUCACCCAUGUAAAA [Mat - Exclusion - Trytophan A - D24],125
13,GGUGGCGUGACGGAUACCAGCCACCACCGUUAGACCACAUGAGGAUCACCCAUGUUGGGUGGCCCUUGGCAGCUGUCGUGCGGCG [#1 Same State - Theophylline B Attempt #18 (HarryS)],377
14,ACAUGAGGAUCACCCAUGUAUUACCGGGAAGGAGCGCGUAAGGACGCAGGUAGGUCGCUCGGCGUCGUGCUGUAAAGCACGACGA [#1 Same State - Arginine A Attempt #24 (HarryS)],14.9
15,GGAACAUGAGGAUCACCCAUGUCGAGUGGUCGAGGACCGGUACGGCCGCCACUCGACAUUGCUCAUAGGUAUAGCGUGAGAACGC [Same State - Tryptophan 1],326
16,UUAAUCUAUAAUGAAAACAUUAUAGCAGAAGGAGCGUGAUAAAACACAGGUAGGUCGCUGAAGGGAACAUGAGGAUCACCCAUGU [AstrosSSArgA#12],28.7

# Same assay, conditions: Eterna round: R107; input ligand: theophylline 20 uM
row,Sequence,apparent KD of MS2 coat protein [nM]
1,CUCUGAGUGAUCGCUCACUCAGAGGCGGAUACCAGCGAGGUCCAUCGCCCUUGGCAGCCGAACAUGAGGAUCACCCAUGUCGGUA [#1 Same State - Theophylline A Attempt #20 (HarryS)],13.7
2,UUUUUUUUGGGAAGGAGCGGGAACAUGUGGAUCUCCCAUGUACAUGAGGAUCACCCAUGUACCCAGGUAGGUCGCUCAUUUUUUU [Exclusion - Arginine B],38.6
3,UGGCGAGAAGGAAGGAGCGUCAGCUGAGUCACAUGAGGAUCACCCAUGUCGCACAUAGUGUGACAGGUAGGUCGCCUUCUGCCCU [Beinmain],152
4,CAACAAGUAACUGAUACCAGUGUACUGACAUGAGGAUCACCCAUGUUGGGUUUUGUUGUACACCCUUGGCAGCAGAAUCUUGUUG [AstrosExyTheB#21],67.7
5,UCGUUUGAGGCGGCCGCCACUGGUCUCAUGGUCAACAUGAGGAUCACCCAUGUAUCUUUGCCAAGCAGGACCGGGCCUCGAGCGA [#20 Exclusion Tryptophan B],41.4
6,ACAGGAAACGGAAGGAGCGGAAUUGCAACAUGAGGAUCACCCAUGUUGAUCGUGAGUUGCUUCCAGGUAGGUCGCCGUUACCUAA [Erorve],39.4
7,ACAUGAGGAUCACCCAUGUACAUAAGGGAAGGAGCGCGGUGAAACGCAGGUAGGUCGCCCAUAAUAACAAUAAAUAAAUUCAUGU [LeftA1],21
8,ACACCGAAAGGUGCAUUUUCCUUUUCAGAUACCAGACUUUACGUUGUCCCUUGGCAGCUGUAUCACAUGAGGAUCACCCAUGUUG [JR_SSTheophyA_Sub012],21.4
9,UCGGGCAGAGCGGCCGCCACUGUUUGGCGUGCGGAUGAAGGAACAUGAGGAUCACCCAUGUAGAUUAGGACCGGGCUUGCGGAGA [ddrmullin],18.1
10,ACGUAAUGCAGAAGGAGCGUCUUUUUAAAACAUGAGGAUCACCCAUGUAAUAUUUAUGGGAGACAGGUAGGUCGCUGAAGUACGA [JR_SSArginiB_Sub006],32.3
11,UGUAAAAUAACAGAUACCAGCGUGUUAUAAAACAUGAGGAUCACCCAUGUAGUGAUCAAGCGCCCUUGGCAGCUGGUAUUUUAUG [7.D],171
12,AGACAUGAGGAUCACCCAUGUAGUACGGAUACCAGAUCCAGAUGCGUCCCUUGGCAGCUGUAGUACAGCGUUACGUCGCUCAUAG [Exclusion - Theophylline A (Freestyle 26)],48.1
13,ACAUGAGGAUCACCCAUGUCAUGAGGUUCACGAGGACCGGUACGGCCGCCACUCGGGCUUCGGAUCACGGAUGUACAUGAUGAUC [kmullin1],92.2
14,ACAUGAGGAUCACCCAUGUAAGGUCUUGAUACCAGACGAGAAGUAGUCCCUUGGCAGCAAAUACGUGAGGGUCACACAUGUGUAA [edsmullin],37.7
15,UGUCAAUCGCCGGAUACCAGCCUAACUGAAGGAAAUCUAAACAUGAGGAUCACCCAUGUAGGCCCUUGGCAGCCGAGUAAGUACA [theeternabot_exclusion_MS2_Theo_B_15],65.4
16,GGGUCAGGCGCGGCCGCCACUGCGGUGAUGUGACAUGAGGAUCACCCAUGUUGUCAUGUGGCACAUAGGACCGGGUGCCUGGCCC [#1 Exclusion - Tryptophan B Attempt #6 (HarryS)],50.2
17,CGUAGGAUCGUGGAUACCAGUACCGCCCACGACAUGAGGAUCACCCAUGUAGGUAAUCUUUACCCUUGGCAGCCAUUUUUUUCUG [theeternabot_sameState_MS2_Theo_B_14],72.6
18,ACUCGGUGUUUGUUGCUCCGAGUUUAUGAUACCAGUUAGUUUUAUGGCCCUUGGCAGCAUAGGACAUGAGGAUCACCCAUGUGUU [#03 SameState-TheophyllineA],38.6
